Here are results for one molecule from patent publication US20100055715A1 (published 2010).

This experiment concerns the target T1, Mycobacterium proteasomal ATPase (Mpa), untagged recombinant (Mycobacterium tuberculosis, UniProt P9WQN5 1-609).
T1 sequence: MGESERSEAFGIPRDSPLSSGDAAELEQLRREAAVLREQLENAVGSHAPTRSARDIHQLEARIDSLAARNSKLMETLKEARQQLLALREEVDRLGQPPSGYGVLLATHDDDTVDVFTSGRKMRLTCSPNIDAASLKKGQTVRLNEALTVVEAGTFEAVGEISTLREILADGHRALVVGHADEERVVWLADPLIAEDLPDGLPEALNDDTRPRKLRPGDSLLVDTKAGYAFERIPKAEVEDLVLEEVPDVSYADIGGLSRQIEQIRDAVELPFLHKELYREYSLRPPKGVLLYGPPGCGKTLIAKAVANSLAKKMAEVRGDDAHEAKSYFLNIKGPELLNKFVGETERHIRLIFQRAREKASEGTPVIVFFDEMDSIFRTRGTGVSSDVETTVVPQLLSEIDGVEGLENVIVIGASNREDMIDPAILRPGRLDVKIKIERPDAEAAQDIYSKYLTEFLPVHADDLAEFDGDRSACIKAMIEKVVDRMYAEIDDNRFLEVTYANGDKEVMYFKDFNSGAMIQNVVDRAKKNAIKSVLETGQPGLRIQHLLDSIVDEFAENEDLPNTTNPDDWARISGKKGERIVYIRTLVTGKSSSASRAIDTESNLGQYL
The experiment can be described thus: Ni-NTA agarose pull-down, Coomassie gel and anti-Mpa immunoblot. On the technique in general: In western blotting, separated proteins are transferred to a membrane and probed.

B1: [change] (other)
chain: MAQEQTKRGGGGGDDDDIAGSTAAGQERREKLTEETDDLLDEIDDVLEENAEDFVRAYVQKGGQ
Regarding B1, the binding result is reported as “binds”.
